One substance from IntAct's records for PubMed 30058071 can be followed below.

The target of this assay is SHANK3, Q9BYB0-1.
Sequence of SHANK3, Q9BYB0-1 (Q9BYB0 whole entry): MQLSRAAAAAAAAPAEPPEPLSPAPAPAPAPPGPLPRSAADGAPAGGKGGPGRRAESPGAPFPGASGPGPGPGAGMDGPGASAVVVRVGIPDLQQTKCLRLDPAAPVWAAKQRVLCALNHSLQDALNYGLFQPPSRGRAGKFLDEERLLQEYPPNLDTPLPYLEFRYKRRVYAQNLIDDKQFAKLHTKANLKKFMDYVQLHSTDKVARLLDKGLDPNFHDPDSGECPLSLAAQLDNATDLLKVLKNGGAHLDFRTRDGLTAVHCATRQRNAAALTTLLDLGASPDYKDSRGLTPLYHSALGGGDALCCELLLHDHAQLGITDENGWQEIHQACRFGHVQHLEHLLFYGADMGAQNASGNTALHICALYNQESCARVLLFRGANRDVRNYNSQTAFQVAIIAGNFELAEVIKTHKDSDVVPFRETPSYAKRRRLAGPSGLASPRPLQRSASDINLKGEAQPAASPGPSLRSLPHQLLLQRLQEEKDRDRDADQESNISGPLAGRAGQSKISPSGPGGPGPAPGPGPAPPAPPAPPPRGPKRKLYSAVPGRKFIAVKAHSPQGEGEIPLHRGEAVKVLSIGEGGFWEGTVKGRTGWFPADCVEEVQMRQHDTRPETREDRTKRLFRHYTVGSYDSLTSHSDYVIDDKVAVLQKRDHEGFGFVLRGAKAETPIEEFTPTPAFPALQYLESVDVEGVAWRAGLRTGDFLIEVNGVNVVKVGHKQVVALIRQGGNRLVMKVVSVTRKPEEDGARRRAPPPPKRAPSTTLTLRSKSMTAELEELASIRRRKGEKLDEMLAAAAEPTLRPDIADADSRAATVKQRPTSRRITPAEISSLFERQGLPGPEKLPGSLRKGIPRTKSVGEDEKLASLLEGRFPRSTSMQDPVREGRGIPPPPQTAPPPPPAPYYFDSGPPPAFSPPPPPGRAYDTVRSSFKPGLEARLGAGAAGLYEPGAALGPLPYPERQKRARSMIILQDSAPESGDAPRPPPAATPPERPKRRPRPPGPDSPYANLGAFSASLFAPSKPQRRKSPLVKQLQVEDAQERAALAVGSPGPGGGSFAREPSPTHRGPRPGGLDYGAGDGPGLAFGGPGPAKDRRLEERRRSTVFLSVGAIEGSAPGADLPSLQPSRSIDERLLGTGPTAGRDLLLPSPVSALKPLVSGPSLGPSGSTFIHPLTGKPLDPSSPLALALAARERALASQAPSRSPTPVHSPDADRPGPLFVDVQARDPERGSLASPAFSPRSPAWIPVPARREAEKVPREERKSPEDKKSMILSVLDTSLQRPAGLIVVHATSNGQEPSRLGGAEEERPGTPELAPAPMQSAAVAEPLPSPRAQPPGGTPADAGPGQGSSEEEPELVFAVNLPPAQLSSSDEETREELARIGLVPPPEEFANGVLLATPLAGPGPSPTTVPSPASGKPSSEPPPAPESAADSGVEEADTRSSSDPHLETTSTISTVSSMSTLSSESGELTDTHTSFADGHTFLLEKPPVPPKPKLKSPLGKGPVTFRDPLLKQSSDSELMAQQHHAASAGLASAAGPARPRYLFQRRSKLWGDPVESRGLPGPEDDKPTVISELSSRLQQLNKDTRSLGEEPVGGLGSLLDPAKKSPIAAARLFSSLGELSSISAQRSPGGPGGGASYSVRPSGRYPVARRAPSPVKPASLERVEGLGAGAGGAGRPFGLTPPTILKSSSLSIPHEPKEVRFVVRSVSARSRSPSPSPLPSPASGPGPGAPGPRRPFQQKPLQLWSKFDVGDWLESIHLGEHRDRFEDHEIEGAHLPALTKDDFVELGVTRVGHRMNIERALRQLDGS

For the substance “Voltage-dependent L-type calcium channel subunit alpha-1D (Homo sapiens), Q01668 R1908G”, the “effect of a mutation on the interaction” value is “disrupting interaction strength”.
